This data set has as its target T1, hNE (Homo sapiens, UniProt P08246).
T1 sequence (P08246 30-267): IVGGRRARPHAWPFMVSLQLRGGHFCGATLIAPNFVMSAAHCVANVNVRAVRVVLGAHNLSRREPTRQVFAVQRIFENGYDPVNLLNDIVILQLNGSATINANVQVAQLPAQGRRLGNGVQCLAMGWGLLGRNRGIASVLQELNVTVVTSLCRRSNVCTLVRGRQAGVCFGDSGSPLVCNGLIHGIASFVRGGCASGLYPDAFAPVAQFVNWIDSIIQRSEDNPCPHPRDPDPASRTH
As to the kind of experiment: Resistance to oxidative inactivation by Chloramine-T, residual hNE-inhibition activity. As to conditions: 20 minutes at RT. The format is physicochemical. The procedure:
At the end of the incubation period, the oxidation reactions were quenched by adding methionine to a final concentration of 4 mM. After a further 10 minute incubation, the quenched reactions were diluted and assayed for residual inhibitor activity in our standard hNE-inhibition assay.
Inhibitors were incubated in the presence of Chloramine-T at the molar ratios indicated for 20 minutes at RT. Oxidation reactions were quenched by adding methionine to a final concentration of 4 mM. Residual hNE-inhibition activity remaining in the quenched reactions is shown as a percentage of the activity observed with no added oxidant.

B1: Secretory Leucocyte Protease Inhibitor (protein)
chain: SGKSFKAGVCPPKKSAQCLRYKKPECQSDWQCPGKKRCCPDTCGIKCLDPVDTPNPTRRKPGKCPVTYGQCLMLNPPNFCEMDGQCKRDLKCCMGMCGKSCVSPVKA
On to B1, for which the “Percent Residual hNE-Inhibitory Activity” value runs as follows: (Molar Ratio CHL-T:Inhibitor 0) 100%; (Molar Ratio CHL-T:Inhibitor 0.29) 93%; (Molar Ratio CHL-T:Inhibitor 1.2) 65%; (Molar Ratio CHL-T:Inhibitor 2.4) 48%; (Molar Ratio CHL-T:Inhibitor 5.9) 18%; (Molar Ratio CHL-T:Inhibitor 12.) 15%. Further, the “Percent Residual hNE-Inhibitory Activity” value worked out at 82% (Molar Ratio CHL-T:Inhibitor .59) and 73% (Molar Ratio CHL-T:Inhibitor .88).

Values taken from patent publication US20060134087A1, “ITI-D1 Kunitz domain mutants as hNE inhibitors” (Dyax Corp., priority 1988, published 2006).
